{
  "source": "the nanobody polyreactivity screen of Harvey et al. (2022)",
  "data": [
    {"assay": "yeast display, Sf9 membrane polyspecificity reagent, FACS + sequencing; frameworks hold sequencing errors", "in_short": "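Sorting gates, low and high (top ~1%), were placed on anti-HA fluorescence to track expression and on streptavidin fluorescence to track reagent binding. A clone's polyreactivity label is taken from the gate it came out of. The reagent was 10% biotinylated, detergent-solubilized Sf9 membrane, applied for 1 hour at 4 °C to galactose-induced yeast display cells.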", "values": [
      {"sequence": "QVQLVESGGGLVQAGGSLRLSCAASGRIFARNAMGWYRQAPGKEREFVAAITHSGGNTYYADSVKGRFTISRDNAKNTVYLQMNSLKPEATAVYYCAKDYRSTKYDYWGQGTQVTVSS", "polyreactivity (PSR sort gate)": "low polyreactivity"},
      {"sequence": "QVQLVESGGGLVQAGGSLRLSCAASGRIFASNAMGWYRQAPGKERELVAGISRNGGSTFYADSVKGRFTISRDNAKNTVYLQMNSLKPEDTAVYYCARYYTHSGGYRDRIYYYWGQGTQVTVSS", "polyreactivity (PSR sort gate)": "low polyreactivity"},
      {"sequence": "QVQLVESGGGLVQAGGSLRLSCAASGRIFASYAMGWYRQAPGKERELVAAISAGGGSRTYYADSVKGRFTISRDNAKNTVYLQMNSLKPEDTAVYYCNTANSWLRQYYYWGQGTQVTVSS", "polyreactivity (PSR sort gate)": "high polyreactivity"},
      {"sequence": "QVQLVESGGGLVQAGGSLRLSCAASGRIFATNAMGWYIQAPGKERELVAAISWDGGSTYYADSVKGRFTISRDNAKNTVYLQMNSLKPEDTAVYYCNKVLYYAYDYWGQGTQVTVSS", "polyreactivity (PSR sort gate)": "low polyreactivity"},
      {"sequence": "QVQLVESGGGLVQAGGSLRLSCAASGRIFAVNALGWYRQAPGPERELVATIRGSGTSTYYADSVKGRFTISRDHATNTVYLQMNSLKPEDTAVYYCAKAYNGRYTWRYDYWGQGTQVTVSS", "polyreactivity (PSR sort gate)": "high polyreactivity"},
      {"sequence": "QVQLVESGGGLVQAGGSLRLSCAASGRIFAVNTMGWYRQAPGKEREFVAAISDSGGGTYYADSVKGRFTISRDNAKKTVYLQMNSLKPEDTAVYYCNAKGQRSPYSKLEYWGQGTQVTVSS", "polyreactivity (PSR sort gate)": "high polyreactivity"},
      {"sequence": "QVQLVESGGGLVQAGGSLRLSCAASGRIFAVYAMGWYRQAPGKERELVAAISWSGGRTYYADSVKGRFTISRDNAKNTVYLQMNSLKPEDTAVYYCNRTPTGSYLYGMDYWGQGTQVTVSS", "polyreactivity (PSR sort gate)": "high polyreactivity"},
      {"sequence": "QVQLVESGGGLVQAGGSLRLSCAASGRIFAWDAMGRYRQAPGKERELVAAITWGGGRTYYADSVKGRFTISRDNAKNTVYLQMNSLKPEDTAVYYCAAYSYKEEAYRGVAQERDYWGQGTQVTVSS", "polyreactivity (PSR sort gate)": "low polyreactivity"},
      {"sequence": "QVQLVESGGGLVQAGGSLRLSCAASGRIFAWYAMGWYRQSPGKESELVAAISDSGGSTYYADSVKGRFTISRDNAKNTVYLQMNSLKPEDTAVYYCAADQVVYSAYWSDHYDYWGQGTQVTVSS", "polyreactivity (PSR sort gate)": "low polyreactivity"},
      {"sequence": "QVQLVESGGGLVQAGGSLRLSCAASGRIFAYNAMGWYREAPGKERELVASITSGGGRTYYADSVKGRFTISRDNAKNTVYLQMNSLKPEDTAVYYCNVDVSLSKFGSVLYDYWGQGTQVTVSS", "polyreactivity (PSR sort gate)": "low polyreactivity"},
      {"sequence": "QVQLVESGGGLVQAGGSLRLSCAASGRIFAYNTMGWYRQAHGKEREFVAVITSGGSTNYADSVKGRFTISRDNAKNTVFLLLNSLKPEDTAVYYCAKRPYGRSGGSRYDYWGQGTKVTVSS", "polyreactivity (PSR sort gate)": "high polyreactivity"},
      {"sequence": "QVQLVESGGGLVQAGGSLRLSCAASGRIFAYYAMEWYRQAPGKERELVAAITRSGARTYYADSVKGRFTISRDNAKNSVYLQMNSLKPEDTAVYYFAAEGVRIGTRYDYWGQGTQVTVSS", "polyreactivity (PSR sort gate)": "high polyreactivity"},
      {"sequence": "QVQLVESGGGLVQAGGSLRLSCAASGRIFAYYAMGWYRQAPGKERELVAAINTSGAPTNYADSVKGRFTISRDNAKNTVYLQMISLKPEDTAVYYCAARRARYHVEYYYWGQGTQVTVSS", "polyreactivity (PSR sort gate)": "high polyreactivity"},
      {"sequence": "QVQLVESGGGLVQAGGSLRLSCAASGRIFAYYAMGWYRQAPGKERELVAAISFIGGSTYYADSVKGRFTISRDNAKNTVYLQMNSLKPEDTAVDYCTAGYVRRYSPSSSWRYDYWGQGTQVTVSS", "polyreactivity (PSR sort gate)": "high polyreactivity"},
      {"sequence": "QVQLVESGGGLVQAGGSLRLSCAASGRIFAYYAMGWYRQAPGKERELVAAISRGGGSTSYADSVKGRFTISRDNAKNTFYLQMNSLKPEDTAVYYCAKDRGYRYLGDYWGQGTQVTVSS", "polyreactivity (PSR sort gate)": "low polyreactivity"},
      {"sequence": "QVQLVESGGGLVQAGGSLRLSCAASGRIFAYYAMGWYRQAPGKERELVAAISSGGSTKYADSVKGRFTISRDNAKNTVYLQMNSLKPEDTAVYYCAAKYGYRKYRGFQNGGDYWGQGTQVNVSS", "polyreactivity (PSR sort gate)": "high polyreactivity"},
      {"sequence": "QVQLVESGGGLVQAGGSLRLSCAASGRIFAYYAMGWYRQAPGKERELVAAISSGGTTNYADSVKGRFTISRDNAKITVYLQMNSLIPEDTAVYYCNADGWRRSRQYYYWGQGTQVTVSS", "polyreactivity (PSR sort gate)": "low polyreactivity"},
      {"sequence": "QVQLVESGGGLVQAGGSLRLSCAASGRIFAYYAMGWYRQAPGKERELVAAITSSGGSTYYADSVKGRFTISRDNAKNTVYLQMNSLKPEDTAVYFCAKVGARSERFDYRGQGTQVTVSS", "polyreactivity (PSR sort gate)": "high polyreactivity"},
      {"sequence": "QVQLVESGGGLVQAGGSLRLSCAASGRIFAYYAMGWYRQAPGKERELVAAITTNGGGTYYADSVKGRFTISRDNETNTVYLQMNSLKAEDTAVYYCAKRSWIEYDYWGQGTQVTVSS", "polyreactivity (PSR sort gate)": "low polyreactivity"},
      {"sequence": "QVQLVESGGGLVQAGGSLRLSCAASGRIFAYYAMGWYRQAPGKERELVAGINSGGGSTYYADSVKGRFTISRDNAKNTVYLQMNSLKPEDNAVSYCATYYYRRSNRSSTSYDYWGQGTQVTVSS", "polyreactivity (PSR sort gate)": "high polyreactivity"}
    ]}
  ]
}
